We go through 16 sequences from the DeepSol protein solubility set.

The series in a line: soluble on expression in E. coli; label from the status in PepcDB or PDB records.
Regarding “HHHHHHHSEMTPREIVSELDKHIIGQDNAKRSVAIALRNRWRRMQLNEELRHEVTPKNILMIGPTGVGKTEIARRLAKLANAPFIKVEATKFTEVGYVGKEVDSIIRDLTDAAVKMVRVQAIEKNRYRAEELAEERILDVLIPPAKNNWGQTEQQQEPSAARQAFRKKLREGQLDDKEIEIDLAAAPMGVEIMAPPGMEEMTSQLQSMFQNLGGQKQKARKLKIKDAMKLLIEEEAAKLVNPEELKQDAIDAVEQHGIVFIDEIDKICKRGESSGPDVSREGVQRDLLPLVEGCTVSTKHGMVKTDHILFIASGAFQIAKPSDLIPELQGRLPIRVELQALTTSDFERILTEPNASITVQYKALMATEGVNIEFTDSGIKRIAEAAWQVNESTENIGARRLHTVLERLMEEISYDASDLSGQNITIDADYVSKHLDALVADEDLSRFIL”, the “soluble on expression in E. coli” value is reported as “soluble”.
Under “HHHHHHSEEEAIQIIADPPLPPASFTLRDYVDHSETLQKLVLLGVDLSKIEKHPEAANLLLRLDFEKDIKQMLLFLKDVGIEDNQLGAFLTKNHAIFSEDLENLKTRVAYLHSKNFSKADVAQMVRKAPFLLNFSVERLDNRLGFFQKELELSVKKTRDLVVRLPRLLTGSLEPVKENMKVYRLELGFKHNEIQHMITRIPKMLTANKMKLTETFDFVHNVMSIPHHIIVKFPQVFNTRLFKVKERHLFLTYLGRAQYDPAKPNYISLDKLVSIPDEIFCEEIAKASVQDFEKFLKTL” stands “soluble”; under “HNPLYTAHELESPFQDHGARVAIVWDKAADTLEKLRRNTPLETIVSVNMMTAMPAVQQALLRLPIPMIRKKRDALTASAPNTIPWEILVGSALGGNGDDIVPCPEVTKKSIALILYTSGTTGTPKGAQLSHGNLFANIMQGKAWVKGIGDQDER”, “not soluble”; under “HQRWHKKASVLIYGAGSSGRQLATALSQGPEYHAVAFIDDYKALQGQIIQGIPVYSPEEISHVVERKTVQKILLAIPSASRARRKQVLAKIDCLGIQVLTIPGMADIVEGKAKLEEFKDVGVEDLLGRDSVEPKPELMNADIAD”, “not soluble”.
Then “HYNTEILKSIDNEWRKTQCMPREVCIDVGKEFGVATNTFFKPPCVSVYRCGGCCNSEGLQCMNTSTSYLSKTLFEITVPLSQGPKPVTISFANHTSCRCMSKLDVYRQVHSIIRR”, with “soluble”; and “ICFSKIFNTQYLSDIRYIDLNQNIDTIKSNFKKGLRYNIKKSKNEGCDLKIIENPSSEDIDHFMECYNSMLCRNESSEKYHFSKQFIMDHFKFIKTFLILAYYQKKVVGAGIFFKGETIMHYHLSGTLKLKGIYPNDLILWESIKKSKDLGLKYFFLGGGVIKDDSLFEYKSGFSK”, with “not soluble”.
Under “IGDMAPKANMGWYNSFSYKGFNLGMMLTARLGGLVVSNTQGVLDYYGVSKASADARDAGGVWINNGYVDAKEYYQTIGGSNGGLGQYYTYSATNVRLSELSFSYAFPKKWFNNKVGITAGFVAKNLWMIYCKAPFDPELTASTSSNFYQGVDYFMTPSTRNLGFNVKFQF” stands “not soluble”; under “IGKVKLSARGTFTYARNKIVEYDELPQRYPWMAQTGMRINENYLYIAERLYTKEDFIVSKNGSGIETYTLRSELPQSTLGGLLGPGDIKYKDINGDGIIDSYDKVRGVGHPKVPEIVYGFGLNIEYKGFYASAFFQGAGNCSVLLGGNTPEGWFPFSWGVDQSNYRTFALDRWTEKNPSQNVLMPRLHKDNTNAANNSVASTWWLRNGGFLRLKNVELGYQLPKKLLSKINLQAARIYLMGYNIALWDDLKYFDPEAGNANGGNTYPKARTFTLGIDFTF”, “not soluble”.
For “INAVRAALLENAHFMEKFYLQNGRFKQTSTKWPSLPIKEAEGFCIRLNGIARGALDSKFMLKAVAIDKDKNPFIIKMNENLVTFICKKSASSCSDGLDYFKGNDKDCKLLK”, the “soluble on expression in E. coli” value was “not soluble”.
In the case of “IPLFSDAEIKPNHATRTTQVGMPLAISVDDYSQLAFVLTQSGEIQYLSMDAPDKPAIYTQQLATNPVSFSQSAPGLGWYGLVDDQGLAHIFKPEFNATLRENTRPPEVVALSTDMNLTLTDAQDPVTQFVFSASTQTPTIVWQTRSGKVKARWQEKSALGVAPTTIDFSFSAGFDAPQQMLLTPDGETLYLRDGSELIVLTKAAQKFTVREVIDLTQGDKKHSVRTIDLLAGAYSLLVTHNDGRVSQWFDTLQNDKRTLTHIRDFKLASELKYLLPDSHRKGFYSFYTNGTLQSHYTTSEKLVLFKRAYKQAPAMAAMSNNERYLITWNDDSLKVAEVDNSYPEVSLSSLWQKVWYEGYPEPEFVWQSTSASDNFEAKFSLVPIAFGTIKAA”, the “soluble on expression in E. coli” value was “not soluble”.
Under “IQKMANSFQKLASSVVLFETEINEFLVLFTDTKNKREESEPVRQVSTTQEYHQVTLDQQHYFNHKLSDYFRLFKDKTFFFEII” stands “not soluble”.
Under “IQRSIERALDFRKEVQRLREESDGWFFDIWQPEAVDKAECWPVAPGEDWHGFKDADADHMYLDPVKVTILTPGMDEQGNMDEEGIPAALVAKFLDERGVVVEKTGPYNLLFLFSIGIDKTRAMGLLRGLTEFKRAYDLNLRVKNMLPDLYAEDPDFYRNMRIQDLAQGIH” stands “not soluble”.
Under “IQTTAPPVKESSFVEKMKKTGRNIIVFYGSQTGTAEEFANRLSKDAHRYGMRGMSADPEEYDLADLSSLPEIDKSLVVFCMATYGEGDPTDNAQDFYDWLQETDVDLTGVKFAVFGLGNKTYEHFNAMGKYVDQRLEQLGAQRIFELGLGDDDGNLEEDFITWREQFWPAVCEFFGVEATGEESSIRQYELVVHEDMDVAKVYTGEMGRLKSYENQKPPFDAKNPFLAAVTANRKLNQGTERHLMHLELDISDSKIRYESGDHVAVYPANDSALVNQIGEILGADLDVIMSLNNLDEESNKKHPFPCPTTYRTALTYYLDITNPPRTNVLYELAQYASEPSEQEHLHKMASSSGEGKELYLSWVVEARRHILAILQDYPSLRPPIDHLCELLPRLQARYYSIASSSKVHPNSVHICAVAVEYEAKSGRVNKGVATSWLRAKEPAGENGGRALVPMFVRKSQFRLPFKSTTPVIMVGPGTGIAPFMGFIQERAWLREQGKEVGETLLYYGCRRSDEDYLYREELARFHKDGALTQLNVAFSREQAHKVYVQHLLKRDREHLWKLIHEGGAHIYVCGDARNMAKDVQNTFYDIVAEFGPMEHTQAVDYVKKLMTKGRYSLDVGS” stands “soluble”; under “IREAIARNPQEIFQYVRLSQVKRDDKVLGYRVSPGKDPVLFESIGLQDGDMAVALNGLDLTDPNVMNTLFQSMNEMTEMSLTVERDGQQHDVYIQF”, “not soluble”; under “ISEFGSSRMLTTLIYRSQVHPDRPPVDLDALVHRASSKNLPLGITGILLFNGLQFFQVLEGTEEALESLFSEIQSDPRHRDVVELMRDYSAYRRFHGTGMRILDLRLFETDGALEEILRFSTFGVTEPVNDRMFRLLSAFIADGGRYCLPEPLQPSRWMMMPASGTAAPQHLPGQPCQFALQAIVEPAKKRVSSFEALIRSPTGGSPVEMFAAIAAEDRYRFDLESKAYAFALAGQLPLGKHQLAINLLPGSLYHHPDAVGWLMDSLLAAGLRPDQVLIEVTETEVITCFDQFRKVLKALRVAGMKLAIDDFGAGYSGLSLLTRFQPDKIKVDAELVRDIHISGTKQAIVASVVRCCEDLGITVVAEGVETLEEWCWLQSVGIRLFQGFLFSRPCLNGIGEICWPVARQAMDL”, “soluble”.
“ISEFGSTMARAIYDFFSTPFGNRGLATNRTQLSSLLSSSNSPWQRFLSSMTPLTAPGIVSTPEAPYPGSLMYQESMLHSATVPGVLGSRDAWRTFNVFGLSWTDEGLSGLVAAQDPPPAAPYQPASAQWSDLLNYPRWANRRRELQSKYPLLLRSTLLSAMRAGPVLYVETWPNMISGRLADWFMSQYGNNFVDMCARLTQSCSNMPVEPDGNYDQQMRALISLWLLSYIGVVNQTNTISGFYFSSKTRGQALDSWTLFYTTNTNRVQITQRHFAYVCARSPDWNVDKSWIAAANLTAIVMACRQPPVFANQGVINQAQNRPGFSMNGGTPVHELNLLTTAQECIRQWVMAGLVSAAKGQALTQEANDFSNLIQADLGQIKAQDDALYNQQPGYARRIKPFVNGDWTPGMTAQALAVLATFTA”: the “soluble on expression in E. coli” value was “soluble”.
